# B1: Ubiquitin thioesterase OTUB2 (Homo sapiens), Q96DC9 (parent)
# chain: MSETSFNLISEKCDILSILRDHPENRIYRRKIEELSKRFTAIRKTKGDGNCFYRALGYSYLESLLGKSREIFKFKERVLQTPNDLLAAGFEEHKFRNFFNAFYSVVELVEKDGSVSSLLKVFNDQSASDHIVQFLRLLTSAFIRNRADFFRHFIDEEMDIKDFCTHEVEPMATECDHIQITALSQALSIALQVEYVDEMDTALNHHVFPEAATPSVYLLYKTSHYNILYAADKH
# partner: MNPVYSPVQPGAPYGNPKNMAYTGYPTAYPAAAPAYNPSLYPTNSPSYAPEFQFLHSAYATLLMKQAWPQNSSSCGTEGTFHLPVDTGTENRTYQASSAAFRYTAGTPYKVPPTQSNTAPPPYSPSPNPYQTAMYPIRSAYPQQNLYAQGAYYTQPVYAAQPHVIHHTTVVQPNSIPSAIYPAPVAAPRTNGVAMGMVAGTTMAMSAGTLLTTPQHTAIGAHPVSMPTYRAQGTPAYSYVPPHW
# B2: Proteasome subunit beta type-1 (Homo sapiens), P20618 (parent)
# chain: MLSSTAMYSAPGRDLGMEPHRAAGPLQLRFSPYVFNGGTILAIAGEDFAIVASDTRLSEGFSIHTRDSPKCYKLTDKTVIGCSGFHGDCLTLTKIIEARLKMYKHSNNKAMTTGAIAAMLSTILYSRRFFPYYVYNIIGGLDEEGKGAVYSFDPVGSYQRDSFKAGGSASAMLQPLLDNQVGFKNMQNVEHVPLSLDRAMRLVKDVFISAAERDVYTGDALRICIVTKEGIREETVSLRKD
# partner: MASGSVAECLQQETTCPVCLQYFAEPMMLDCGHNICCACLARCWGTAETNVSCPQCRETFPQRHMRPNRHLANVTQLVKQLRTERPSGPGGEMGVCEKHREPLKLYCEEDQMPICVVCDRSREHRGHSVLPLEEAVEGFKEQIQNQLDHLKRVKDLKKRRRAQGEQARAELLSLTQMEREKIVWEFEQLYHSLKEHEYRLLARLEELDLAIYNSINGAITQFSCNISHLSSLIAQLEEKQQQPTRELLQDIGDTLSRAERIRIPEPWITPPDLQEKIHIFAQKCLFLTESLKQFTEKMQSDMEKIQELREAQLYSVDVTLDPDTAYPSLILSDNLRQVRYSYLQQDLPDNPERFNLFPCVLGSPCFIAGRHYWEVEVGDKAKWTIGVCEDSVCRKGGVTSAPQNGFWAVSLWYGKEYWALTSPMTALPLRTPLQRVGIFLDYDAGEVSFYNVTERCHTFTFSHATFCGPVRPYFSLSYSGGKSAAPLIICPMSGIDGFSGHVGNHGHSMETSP
# B3: Notch homolog 2 N-terminal-like protein A (Homo sapiens), Q7Z3S9 (parent)
# chain: MCVTYHNGTGYCKCPEGFLGEYCQHRDPCEKNRCQNGGTCVAQAMLGKATCRCASGFTGEDCQYSTSHPCFVSRPCLNGGTCHMLSRDTYECTCQVGFTGKECQWTDACLSHPCANGSTCTTVANQFSCKCLTGFTGQKCETDVNECDIPGHCQHGGTCLNLPGSYQCQCLQGFTGQYCDSLYVPCAPSPCVNGGTCRQTGDFTFECNCLPETVRRGTELWERDREVWNGKEHDEN
# partner: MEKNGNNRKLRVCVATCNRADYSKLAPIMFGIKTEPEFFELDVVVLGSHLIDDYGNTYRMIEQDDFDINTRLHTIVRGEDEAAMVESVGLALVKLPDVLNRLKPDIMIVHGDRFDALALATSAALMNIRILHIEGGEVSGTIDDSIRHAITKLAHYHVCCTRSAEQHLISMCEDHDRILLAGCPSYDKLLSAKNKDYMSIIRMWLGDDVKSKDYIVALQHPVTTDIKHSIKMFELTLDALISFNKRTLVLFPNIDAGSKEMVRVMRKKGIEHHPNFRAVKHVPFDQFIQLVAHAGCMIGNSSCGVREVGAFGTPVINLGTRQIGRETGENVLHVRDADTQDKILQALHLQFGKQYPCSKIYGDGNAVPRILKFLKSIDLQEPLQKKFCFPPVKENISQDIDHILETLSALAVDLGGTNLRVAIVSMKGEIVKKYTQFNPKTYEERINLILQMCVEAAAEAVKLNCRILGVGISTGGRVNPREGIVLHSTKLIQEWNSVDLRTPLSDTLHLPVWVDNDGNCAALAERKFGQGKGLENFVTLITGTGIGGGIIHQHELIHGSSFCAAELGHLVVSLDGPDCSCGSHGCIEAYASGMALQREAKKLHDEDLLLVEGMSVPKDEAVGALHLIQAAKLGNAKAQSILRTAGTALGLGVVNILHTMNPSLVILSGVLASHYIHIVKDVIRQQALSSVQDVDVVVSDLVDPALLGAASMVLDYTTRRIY
# B4: Ligand of Numb protein X 2 (Homo sapiens), Q8N448 (parent)
# chain: MGTTSDEMVSVEQTSSSSLNPLCFECGQQHWTRENHLYNYQNEVDDDLVCHICLQPLLQPLDTPCGHTFCYKCLRNFLQEKDFCPLDRKRLHFKLCKKSSILVHKLLDKLLVLCPFSSVCKDVMQRCDLEAHLKNRCPGASHRRVALERRKTSRTQAEIENENGPTLLDPAGTLSPEADCLGTGAVPVERHLTSASLSTWSEEPGLDNPAFEESAGADTTQQPLSLPEGEITTIEIHRSNPYIQLGISIVGGNETPLINIVIQEVYRDGVIARDGRLLAGDQILQVNNYNISNVSHNYARAVLSQPCNTLHLTVLRERRFGNRAHNHSDSNSPREEIFQVALHKRDSGEQLGIKLVRRTDEPGVFILDLLEGGLAAQDGRLSSNDRVLAINGHDLKYGTPELAAQIIQASGERVNLTIARPGKPQPGNTIREAGNHSSSSQHHTPPPYYSRPSSHKDLTQCVTCQEKHITVKKEPHESLGMTVAGGRGSKSGELPIFVTSVPPHGCLARDGRIKRGDVLLNINGIDLTNLSHSEAVAMLKASAASPAVALKALEVQIVEEATQNAEEQPSTFSENEYDASWSPSWVMWLGLPSTLHSCHDIVLRRSYLGSWGFSIVGGYEENHTNQPFFIKTIVLGTPAYYDGRLKCGDMIVAVNGLSTVGMSHSALVPMLKEQRNKVTLTVICWPGSLV
# partner: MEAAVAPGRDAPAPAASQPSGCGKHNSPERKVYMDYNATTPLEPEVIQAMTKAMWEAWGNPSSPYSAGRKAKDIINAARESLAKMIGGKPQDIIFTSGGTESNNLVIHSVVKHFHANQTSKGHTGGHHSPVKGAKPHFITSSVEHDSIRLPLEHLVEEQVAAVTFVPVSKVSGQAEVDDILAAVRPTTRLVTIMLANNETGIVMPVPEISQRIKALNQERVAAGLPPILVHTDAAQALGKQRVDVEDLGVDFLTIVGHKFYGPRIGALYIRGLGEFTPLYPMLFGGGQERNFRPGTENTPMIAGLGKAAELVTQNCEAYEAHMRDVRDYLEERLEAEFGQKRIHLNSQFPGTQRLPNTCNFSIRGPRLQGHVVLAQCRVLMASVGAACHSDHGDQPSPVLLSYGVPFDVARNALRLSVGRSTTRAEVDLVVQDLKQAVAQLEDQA
# B5: Vasculin (Homo sapiens), Q86WP2 (parent)
# chain: MAQHDFAPAWLNFPTPPSSTKSSLNFEKHSENFAWTENRYDVNRRRHNSSDGFDSAIGRPNGGNFGRKEKNGWRTHGRNGTENINHRGGYHGGSSRSRSSIFHAGKSQGLHENNIPDNETGRKEDKRERKQFEAEDFPSLNPEYEREPNHNKSLAAGVWEYPPNPKSRAPRMLVIKKGNTKDLQLSGFPVVGNLPSQPVKNGTGPSVYKGLVPKPAAPPTKPTQWKSQTKENKVGTSFPHESTFGVGNFNAFKSTAKNFSPSTNSVKECNRSNSSSPVDKLNQQPRLTKLTRMRTDKKSEFLKALKRDRVEEEHEDESRAGSEKDDDSFNLHNSNSTHQERDINRNFDENEIPQENGNASVISQQIIRSSTFPQTDVLSSSLEAEHRLLKEMGWQEDSENDETCAPLTEDEMREFQVISEQLQKNGLRKNGILKNGLICDFKFGPWKNSTFKPTTENDDTETSSSDTSDDDDV
# partner: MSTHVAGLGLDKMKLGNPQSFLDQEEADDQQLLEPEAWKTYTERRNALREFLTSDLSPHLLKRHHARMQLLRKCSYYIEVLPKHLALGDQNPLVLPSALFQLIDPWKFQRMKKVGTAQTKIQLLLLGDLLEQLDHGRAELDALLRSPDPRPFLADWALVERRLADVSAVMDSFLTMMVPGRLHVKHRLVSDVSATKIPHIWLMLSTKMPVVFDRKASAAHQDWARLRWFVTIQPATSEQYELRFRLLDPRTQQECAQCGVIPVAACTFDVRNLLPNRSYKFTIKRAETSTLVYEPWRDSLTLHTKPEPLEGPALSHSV
# B6: Protein SSX5 (Homo sapiens), O60225 (parent)
# chain: MNGDDAFVRRPRVGSQIPEKMQKAFDDIAKYFSEKEWEKMKASEKIIYVYMKRKYEAMTKLGFKATLPPFMRNKRVADFQGNDFDNDPNRGNQVEHPQMTFGRLQGIFPKITPEKPAEEGNDSKGVPEASGPQNNGKQLRPSGKLNTSEKVNKTSGPKRGKHAWTHRVRERKQLVIYEEISDPQEDDE
# B7: Proto-oncogene serine/threonine-protein kinase mos (Homo sapiens), P00540 (parent)
# chain: MPSPLALRPYLRSEFSPSVDARPCSSPSELPAKLLLGATLPRAPRLPRRLAWCSIDWEQVCLLQRLGAGGFGSVYKATYRGVPVAIKQVNKCTKNRLASRRSFWAELNVARLRHDNIVRVVAASTRTPAGSNSLGTIIMEFGGNVTLHQVIYGAAGHPEGDAGEPHCRTGGQLSLGKCLKYSLDVVNGLLFLHSQSIVHLDLKPANILISEQDVCKISDFGCSEKLEDLLCFQTPSYPLGGTYTHRAPELLKGEGVTPKADIYSFAITLWQMTTKQAPYSGERQHILYAVVAYDLRPSLSAAVFEDSLPGQRLGDVIQRCWRPSAAQRPSARLLLVDLTSLKAELG
# partner: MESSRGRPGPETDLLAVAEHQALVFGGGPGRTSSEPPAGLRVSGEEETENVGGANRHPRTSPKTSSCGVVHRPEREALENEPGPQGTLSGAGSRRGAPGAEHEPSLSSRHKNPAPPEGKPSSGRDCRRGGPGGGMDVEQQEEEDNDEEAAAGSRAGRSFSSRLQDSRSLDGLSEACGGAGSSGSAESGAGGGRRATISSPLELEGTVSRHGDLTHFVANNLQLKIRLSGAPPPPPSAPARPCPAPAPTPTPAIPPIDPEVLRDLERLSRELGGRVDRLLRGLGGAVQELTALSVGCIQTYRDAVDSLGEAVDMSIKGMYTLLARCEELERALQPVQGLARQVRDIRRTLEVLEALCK
# Variants of: B1
# Conditions: with FAM168A
row,Variant,effect of a mutation on the interaction
1,V78I,with no effect
2,R146P,disrupting interaction strength

# Variants of: B2
# Conditions: with tri27_human TRIM27, P14373
row,Variant,effect of a mutation on the interaction
1,P11A,with no effect

# Variants of: B3
# Conditions: with glcne_human GNE
row,Variant,effect of a mutation on the interaction
1,R74Q,with no effect
2,A115T,with no effect

# Variants of: B4
# Conditions: with scly_human SCLY
row,Variant,effect of a mutation on the interaction
1,S198P,with no effect

# Variants of: B5
# Conditions: with fnd11_human FNDC11, Q9BVV2
row,Variant,effect of a mutation on the interaction
1,S449R,with no effect
2,T223A,with no effect

# Variants of: B6
# Conditions: with atrap_human AGTRAP
row,Variant,effect of a mutation on the interaction
1,K20N,with no effect

# Variants of: B7
# Conditions: with borc6_human BORCS6, Q96GS4
row,Variant,effect of a mutation on the interaction
1,A123T,disrupting interaction strength
2,A105S,with no effect
